We go through one molecule from paper PMC6929039.

This data set addresses Concanavalin A (Con A) (UniProt P02866 164-281+30-148, internal_change). As to the kind of experiment: particle flow cytometry; 10 nM Con A; binding buffer, salt, pH and temperature not given in the material (hemagglutination: 30 min preincubation at RT). For orientation: A flow cytometer gives signals particle by particle.

B1: ConA-3-1n (ssDNA)
DNA: GATCCCAGTCCGAAGTAATCGTTGCATCTGCACGACTGGTGAGCTTGAGTGGCAGAAGAACTTGTGCAAACGGCTATAGG
modifications: none
For B1, the binding result is reported as “no binding”.
